Experimental data from PMC5677581 (2017).
βAla = NCCC(=O)O

Columns and labels:
[1] = biological target: T1, MLL1 (Homo sapiens); experiment: fluorescence polarization competition
T1 chain: Ac-SDIMDFVLKNTP-NH2

[2] = biological target: T2, MLL-WT (Homo sapiens); experiment: fluorescence polarization competition
T2 chain: Ac-DCGNILPSDIMDFVLKNTP-NH2

[3] = biological target: T3, MLL1 (Homo sapiens); experiment: fluorescence polarization
T3 chain: {fluorescein-βAla}-SDIMDFVLKNTP-NH2

[4] = biological target: T4, MLL-WT (Homo sapiens); experiment: fluorescence polarization
T4 chain: {fluorescein-βAla}-DCGNILPSDIMDFVLKNTP-NH2

B1: KIX domain of CBP KIX (protein)
chain: not shown
[1]
  Ki: > 1000 µM
[2]
  Ki: 3 µM
[3]
  Kd: > 100 µM
[4]
  Kd: 1 µM
